From US20240390459A1, “ANTI-DEPRESSION AND ANTI-ANXIETY APPLICATION OF POLYPEPTIDE AND COMPLEX” (SHENZHEN CHENYANG BIOLOGICAL TECHNOLOGY CO., LTD, priority 2021, published 2024)
Ends that are not written are not given here.

Legend:
[1] = molecular target: T1, D1R from mouse hippocampus tissue (Mus musculus, UniProt Q61616); assay: GST pulldown analysis of mouse hippocampus tissue extract with Western blot; type: binding; details: 15 μg GST fusion protein, 500 μg mouse hippocampus tissue extract, overnight 4° C.
T1 construct: from tissue; host or cells: mouse hippocampus tissue extract
T1 sequence (Q61616 whole entry, the tested form may be a part): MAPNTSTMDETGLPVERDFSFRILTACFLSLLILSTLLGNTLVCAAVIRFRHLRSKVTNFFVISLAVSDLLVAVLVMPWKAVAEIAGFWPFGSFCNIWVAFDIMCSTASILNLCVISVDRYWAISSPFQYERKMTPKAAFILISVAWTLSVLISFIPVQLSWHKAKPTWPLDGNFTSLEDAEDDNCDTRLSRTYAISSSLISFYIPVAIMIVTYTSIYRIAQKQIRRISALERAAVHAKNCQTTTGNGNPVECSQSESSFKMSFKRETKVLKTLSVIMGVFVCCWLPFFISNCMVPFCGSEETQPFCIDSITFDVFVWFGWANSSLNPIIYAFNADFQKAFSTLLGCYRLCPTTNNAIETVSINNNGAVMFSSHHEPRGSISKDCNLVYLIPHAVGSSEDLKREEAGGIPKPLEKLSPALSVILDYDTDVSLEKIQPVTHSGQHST
Text: In order to confirm the interbinding site of the 5-HT2AR/D1R complex, the 5-HT2AR full-length cDNA clone (Genbank Accession No.: NM_001378924) was first amplified to obtain cDNA fragments of the CT region of 5-HT2AR (K385-V471) and the third intracellular loop (IL3) region of 5-HT2AR (F255-V324). These fragments were subcloned to the BamH1/EcoR1 or BamH1/Xho1 site of a pGEX-4T-3 plasmid (YouBio no: VT1255). The initial methionine residue and termination codon were incorporated as appropriate. All constructs were resequenced to confirm that splicing and fusion was achieved appropriately. The GST fusion protein containing the third intracellular loop (IL3) of 5-HT2AR (GST-5HT2AR-IL3) and the GST fusion protein containing the CT region of 5-HT2AR (GST-5HT2AR-CT) were expressed from E. coli BL21 viable cells (AlpalifeBio, no: KTSM104L) and purified from bacterial lysate solution.
500 μg of dissolved mouse hippocampus tissue extract was diluted with 1×PBS/1% Triton X-100 and then incubated overnight with 20 μl protein GST resin saturated GST protein or 15 μg GST fusion protein at 4° C. Beads were washed 1-8 times with 1×PBS/1% Triton X-100. Binding proteins were eluted with 2×loading buffer, separated by SDS-PAGE, and underwent Western blot with respective antibodies thereof.
According to the method in the present Example, a pulldown analysis was performed using a GST fusion protein containing a KV region of 5-HT2AR (GST-5HT2AR-KV), a GST fusion protein containing a NN region of 5-HT2AR (GST-5HT2AR-NN), and a GST fusion protein containing a DV region of 5-HT2AR (GST-5HT2AR-DV), and the results of Western blot were shown in FIG. 4 B.
According to the method in the present Example, a pulldown analysis was performed using a GST fusion protein containing a DA region of 5-HT2AR (GST-5HT2AR-DA), and a GST fusion protein containing a SV region of 5-HT2AR (GST-5HT2AR-SV), and the results of Western blot were shown in FIG. 4 C.

5-HT2AR/D1R complex [2] = molecular target: T2, 5-HT2AR/D1R complex (Mus musculus, UniProt Q61616); assay: Co-immunoprecipitation of hippocampus tissue from polypeptide-treated CRS, CMS and CSDS mice; type: in vivo; details: hippocampus tissue of stressed CRS, single intraperitoneal 3 nmol/g, vs TAT
T2 construct: Co-immunoprecipitation was performed using protein samples (100-500 μg protein) from mouse hippocampus tissue; from tissue; host or cells: hippocampus tissue of treated mice (naive, CRS, CMS, CSDS)
T2 sequence (Q61616 whole entry, one chain of several): as the sequence (Q61616 whole entry, the tested form may be a part) above
Procedure: (§1) Co-immunoprecipitation was performed using protein samples (100-500 μg protein) from mouse hippocampus tissue. Precipitation was performed using a mouse antibody against 5-HT2AR (SantaCruz Biotechnology, sc-166775) and 25 μl protein A/G plus agarose bead slurry (santaCruz Biotechnology, sc-2001).
Western blot analysis was carried out after precipitation: the denatured protein was separated on 8% SDS-PAGE gel, then transferred to cellulose nitrate membrane and blocked with TBST; then incubated with mouse antibodies against D1R (SantaCruz Biotechnology, sc-33660) and D2R (SantaCruz Biotechnology, sc-5303) overnight at 4° C.; finally, treated with HRP-coupled secondary antibody for 1 hour, SuperSignal ECL Chemiluminescence Kit was used to detect the signal, and Image Lab software was used to analyze the density of the bands. […]
The treated CRS, CMS and CSDS mice of Example 6 (TAT-5HT2AR-SV, TAT-5HT2AR-DV, TAT-5HT2AR-CT and TAT) were analyzed according to the co-immunoprecipitation method of Example 1, and the Western blot results were shown in FIG. 9, respectively.

mice [3] = assay: Elevated plus maze test (EPM); type: in vivo, mouse; details: single intraperitoneal 3 nmol/g, 1 hour after treatment, 5 min, vs TAT
Procedure: (§2) To evaluate the antianxiety-like effect of the polypeptide of the present invention, mice treated with TAT-5HT2AR-SV, TAT-5HT2AR-DV, TAT-5HT2AR-CT (all treated by single intraperitoneal administration, 3 nmol/g) were subjected to open field test (OFT) for measuring residence time in central area and elevated plus maze test (EPM) 1 hour after treatment, with TAT-treated mice as control. Methods for the tests are as follows:
EPM: consists of two open arms (25 cm×8 cm) and two closed arms (25 cm×8 cm), with the intersection as the central area (8 cm×8 cm), which is 40 cm high from the ground. 1 hour after treated with the polypeptide, mice were placed in the central area facing the open arm, and were recorded for their free activities for 5 min. After each animal was tested, the device was wiped with 70% alcohol. The residence time at the open arm, the residence time at the closed arm, and the total movement distance of mice were recorded.

mice [4] = assay: OFT for residence time in central area; type: in vivo, mouse; details: single intraperitoneal 3 nmol/g, 1 hour after treatment, 5 min, vs TAT
Procedure: as §2
OFT (for measuring the residence time in central area): open bottom surface was divided into 25 equal-area grids, with the middle 9 grids as the central area. 1 hour after treated with the polypeptide, mice were placed in the central area and recorded for 5 min, and the residence time of mice in the central area was recorded.

5-HT2AR and D1R = assay: Direct Western blot of hippocampus tissue from polypeptide-treated mice; type: in vivo; details: mouse hippocampus tissue, single intraperitoneal 3 nmol/g, vs TAT
Procedure: (§3) Western blot analysis was carried out after precipitation: the denatured protein was separated on 8% SDS-PAGE gel, then transferred to cellulose nitrate membrane and blocked with TBST; then incubated with mouse antibodies against D1R (SantaCruz Biotechnology, sc-33660) and D2R (SantaCruz Biotechnology, sc-5303) overnight at 4° C.; finally, treated with HRP-coupled secondary antibody for 1 hour, SuperSignal ECL Chemiluminescence Kit was used to detect the signal, and Image Lab software was used to analyze the density of the bands.
In addition, the hippocampus tissues of TAT-5HT2AR-SV and TAT-treated mice were directly analyzed by Western blot.

5-HT2AR/D1R complex [5] = molecular target: T2, 5-HT2AR/D1R complex; assay: Co-immunoprecipitation of hippocampus tissue from polypeptide-treated mice; type: in vivo; details: single intraperitoneal administration 3 nmol/g, 1 hour after treatment, control TAT only
Procedure: as §1, §3
Mice were treated with TAT-5HT2AR-SV, TAT-5HT2AR-DV and TAT-5HT2AR-CT, and mice treated with TAT only were used as control (all treated by single intraperitoneal administration, 3 nmol/g). 1 hour after the treatment, the mice used were analyzed according to the co-immunoprecipitation method in Example 1, and the results are shown in FIG. 5.

D1R and 5-HT2AR = assay: Direct Western blot of hippocampus tissue from treated stressed mice; type: in vivo, mouse; details: CRS, CMS and CSDS mice
Procedure: as §3
To further evaluate the ability of the polypeptide as an antidepressant, CRS, CMS and CSDS mouse models were constructed according to the method described in Example 2, respectively; 1 hour after construction, mouse models were treated with 10 μM TAT-5HT2AR-SV, TAT-5HT2AR-DV, TAT-5HT2AR-CT or TAT respectively (all treated by single intraperitoneal administration, 3 nmol/g); then FST and TST were performed on CRS, and FST, TST and sucrose preference test (SPT) were performed on CMS and CSDS mice respectively.
Further, the hippocampus tissue of treated CRS mice was directly analyzed by Western blot to investigate the expression levels of D1R and 5-HT2AR, and the results are shown in FIG. 10.
In addition, CRS, CMS and CSDS mice treated with TAT-5HT2AR-DV or TAT-5HT2AR-CT were tested respectively.

[6] = molecular target: T3, 5-HT2A receptor (5-HT2AR), endogenous, from mouse hippocampus tissue (mouse, UniProt P35363 1-471); assay: co-immunoprecipitation from mouse hippocampus tissue with anti-5-HT2AR antibody, Western blot for D2R
T3 construct: Native protein in a tissue lysate, precipitated with a mouse anti-5-HT2AR antibody (sc-166775)
T3 sequence (P35363 whole entry): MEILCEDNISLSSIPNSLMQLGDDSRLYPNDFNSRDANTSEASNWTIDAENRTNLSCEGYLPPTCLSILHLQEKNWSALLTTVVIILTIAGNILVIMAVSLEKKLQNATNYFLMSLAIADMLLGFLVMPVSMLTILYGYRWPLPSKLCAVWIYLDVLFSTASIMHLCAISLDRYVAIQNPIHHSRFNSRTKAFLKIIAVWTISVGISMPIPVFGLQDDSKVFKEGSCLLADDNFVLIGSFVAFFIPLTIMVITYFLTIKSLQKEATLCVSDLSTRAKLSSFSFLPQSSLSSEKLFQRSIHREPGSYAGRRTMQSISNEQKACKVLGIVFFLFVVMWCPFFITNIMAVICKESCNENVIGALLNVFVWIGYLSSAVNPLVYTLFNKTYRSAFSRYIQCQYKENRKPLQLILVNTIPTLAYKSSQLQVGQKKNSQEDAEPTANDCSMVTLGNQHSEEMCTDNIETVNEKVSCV

“GST-5HT2AR-DV: GST fusion protein containing a DV region of 5-HT2AR (D442-V471) (DCSMVALGKQHSEEASKDNSDGVNEKVSCV; not fully specified (N-terminus); cysteine pairing not given here; also: GST fusion protein)” was tested. Which “pulldown of / affinity to D1R” value [1] did it give?
Its value is “can pulldown DIR”.

With “GST-5HT2AR-SV: GST fusion protein containing a SV region of 5-HT2AR (S457-V471) (SKDNSDGVNEKVSCV; not fully specified (N-terminus); also: GST fusion protein)” as the molecule, how does the “pulldown of / affinity to D1R” value [1] read?
The value was “has an affinity to D1R”.

What does the source list for “TAT-5HT2AR-DV: DV region (D442-V471) of 5-HT2AR fused with TAT (DCSMVALGKQHSEEASKDNSDGVNEKVSCV; cysteine pairing not given here; also: fused with TAT peptide at C-terminal region; UniProt P28223 442-471, looked up, fragment)”?
interaction between 5-HT2AR and D1R (co-immunoprecipitation) (5-HT2AR/D1R complex [2]): significantly reduced the interaction between 5-HT2AR and D1R; EPM residence time at the closed arm (mice [3]): decreased residence time at the closed arm; EPM residence time at the open arm (mice [3]): significantly increased residence time at the open arm; OFT residence time in the central region (mice [4]): significantly increased the residence time; expression of 5-HT2AR and D1R (5-HT2AR and D1R): did not cause a significant change; interaction of 5-HT2AR/D1R (co-immunoprecipitation) (5-HT2AR/D1R complex [5]): successfully destroyed the interaction of 5-HT2AR/D1R; D1R and 5-HT2AR levels (D1R and 5-HT2AR): did not cause a significant change

B1: TAT-5HT2AR-CT: CT region (K385-V471) of 5-HT2AR fused with TAT (peptide, UniProt P28223 385-471, looked up, fragment)
chain: KTYRSAFSRYIQCQYKENKKPLQLILVNTIPALAYKSSQLQMGQKKNSKQDAKTTDNDCSMVALGKQHSEEASKDNSDGVNEKVSCV
modifications: C-terminal region fused with TAT peptide
notes: CT region (K385-V471) of 5-HT2AR fused with TAT
Which “interaction between 5-HT2AR and D1R (co-immunoprecipitation)” value (5-HT2AR/D1R complex [2]) does the source give for B1 here?
Its value is “significantly reduced the interaction between 5-HT2AR and D1R”.

And the “EPM residence time at the closed arm” value (mice [3])?
The value was “decreased residence time at the closed arm”.

And the “EPM residence time at the open arm” value (mice [3])?
The value was “significantly increased residence time at the open arm”.

What about the “OFT residence time in the central region” value (mice [4]) of the same molecule?
Its value is “significantly increased the residence time”.

What about the “expression of 5-HT2AR and D1R” value (5-HT2AR and D1R) of the same molecule?
The value was “did not cause a significant change”.

What about the “interaction of 5-HT2AR/D1R (co-immunoprecipitation)” value (5-HT2AR/D1R complex [5]) of the same molecule?
Its value is “successfully destroyed the interaction of 5-HT2AR/D1R”.

What about the “D1R and 5-HT2AR levels” value (D1R and 5-HT2AR) of the same molecule?
Its value is “did not cause a significant change”.

B2: GST-5HT2AR-CT: GST fusion protein containing the CT region of 5-HT2AR (K385-V471) (protein)
chain: B1 chain
modifications: left off: a dimerising Fc or GST
How did the “pulldown of / affinity to D1R” value [1] turn out when B2 was run?
Its value is “can pulldown DIR”.

B3: Dopamine D2 receptor (D2R), endogenous, from mouse hippocampus tissue (receptor, UniProt P61168 1-444, looked up)
chain: MDPLNLSWYDDDLERQNWSRPFNGSEGKPDRPHYNYYAMLLTLLIFIIVFGNVLVCMAVSREKALQTTTNYLIVSLAVADLLVATLVMPWVVYLEVVGEWKFSRIHCDIFVTLDVMMCTASILNLCAISIDRYTAVAMPMLYNTRYSSKRRVTVMIAIVWVLSFTISCPLLFGLNNTDQNECIIANPAFVVYSSIVSFYVPFIVTLLVYIKIYIVLRKRRKRVNTKRSSRAFRANLKTPLKGNCTHPEDMKLCTVIMKSNGSFPVNRRRMDAARRAQELEMEMLSSTSPPERTRYSPIPPSHHQLTLPDPSHHGLHSNPDSPAKPEKNGHAKIVNPRIAKFFEIQTMPNGKTRTSLKTMSRRKLSQQKEKKATQMLAIVLGVFIICWLPFFITHILNIHCDCNIPPVLYSAFTWLGYVNSAVNPIIYTTFNIEFRKAFMKILHC
notes: Native protein in a tissue lysate, detected by Western blot with sc-5303
Does B3 bind [6]?
Result: no binding
